“And” between values parts separate entries of the source, which are not always exact repeats. Equal values may be shown once.

This is an account of results in paper PMC10329633, “Molecular basis and design principles of switchable front-rear polarity and directional migration in Myxococcus xanthus” (Nature Communications, 2023).

Test [1] concerns the target MalE-MglC (Myxococcus xanthus). As to the kind of experiment: mass photometry; single proteins in solution, diluted into phosphate-buffered saline; MalE-RomR and MalE-RomR^C at 25 nM and 50 nM.
Test [2] deals with MalE-RomR (Myxococcus xanthus). The description is as above.
For test [3], the target named is MalE-MglC (Myxococcus xanthus). Nature of the test: mass photometry; mixtures of MalE-MglC with MalE-RomR or MalE-RomR^C in solution, diluted into phosphate-buffered saline.
Test [4] deals with MalE-RomR^C (Myxococcus xanthus). Nature of the test: mass photometry; single proteins in solution, diluted into phosphate-buffered saline; MalE-RomR and MalE-RomR^C at 25 nM and 50 nM.
The target of a further test is T1, MglA-His6 (Myxococcus xanthus, UniProt Q1DB04 1-195).
T1 construct: MglA, small GTPase of Myxococcus xanthus; Preloaded with GTP, GppNHp or GDP (40 µM) according to the experiment; the nucleotide is named in the assay's format; also called MglA-GTP; source: E. coli Rosetta 2(DE3), purified (Ni-NTA, Superdex 75 gel filtration); not shown: His6, C-terminal, kept
T1 sequence: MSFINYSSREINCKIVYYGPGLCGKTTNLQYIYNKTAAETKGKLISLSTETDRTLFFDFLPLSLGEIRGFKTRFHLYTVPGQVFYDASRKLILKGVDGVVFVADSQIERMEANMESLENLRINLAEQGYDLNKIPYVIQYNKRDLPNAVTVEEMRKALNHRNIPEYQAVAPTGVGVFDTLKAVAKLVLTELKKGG
As to the kind of experiment: pull-down; Strep-MglC as bait on Strep-Tactin beads; 40 µM GppNHp in all buffers; without or with MglA-His6 preincubated with GppNHp; proteins 10 µM; MglB detected by immunoblot with α-MglB. To be noted: both partners purified.

As for MalE-MglC (natural protein), the stoichiometry N (in general, a count of units in the complex or per binding partner) in test [1] is 2.

On to MalE-RomR (natural protein), for which the stoichiometry N in test [2] was 2 and 3. Moreover, in test [3], the stoichiometry N (RomR per MglC (printed as 2:2)) amounted to 1 and the stoichiometry N (RomR per MglC (printed as 3:2)) is 1.5.

For the molecule MalE-RomR^C (domain or fragment), in test [4], the stoichiometry N is 2 and 3. For the same molecule, in test [3], the stoichiometry N (RomR^C per MglC (printed as 2:2)) was 1 and the stoichiometry N (RomR^C per MglC (printed as 3:2)) came to 1.5.

B1: His6-MglB (natural protein, Myxococcus xanthus)
chain: MGTQLVMYEEEFTKINAVCDRLTKDANAKVVFLVDKNGQLISSAGQTQNIDTTSLASLTAGNVAAMGGLAKLIGENEFPNQFHEGAKDSLYMTIVGSRVVLVVIFDNRTSLGLVRLRIKKASDELTKIFESLVKKTDSPGAGSPFAEISDDDIDNLFSE
notes: also called MglB-His6; MglB^WT; source: E. coli Rosetta 2(DE3), purified (Ni-NTA, Superdex 75 gel filtration); not shown: His6, N-terminal, kept
On to B1, for which the binding result in the test with MglA-His6 is reported as “binds”.
